Results: the supplement of paper PMC9170038

Tested on: MS2 coat protein
Assay: apparent KD of MS2 coat protein; designed switch direction (-1 OFF switch, 1 ON switch): -1; higher = weaker reporter binding
Method in brief: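 On Illumina chips, designed RNA switches with common flanks were made by stalled E. coli RNA polymerase. Titrations with SNAP-549-labelled MS2 coat protein, doubling from 0.7 or 1.5 nM to 3 µM, were done with no input, with 200 uM small-molecule ligand, or with an oligonucleotide input. Apparent KD is the median per design over clusters, from curve fits of normalised cluster fluorescence.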

[1] = Eterna round: R95, input ligand: microRNA oligo, concentration not stated
[2] = input ligand: microRNA oligo, concentration not stated
[3] = Eterna round: R95, input ligand: FMN 200 uM
[4] = Eterna round: R95, input ligand: none

CUAUAUUUAGGAUAUGUUCGGCUAGACAUGAGGAUCACCCAUGUGAGCCUAGGAGCAGCCACAGAAGGGAGUAUGU [Eternabot (L2) Solution 62] (Eterna round: R97, puzzle: Exclusion 5)
apparent KD of MS2 coat protein (input ligand: FMN 200 uM): 27.6 nM | apparent KD of MS2 coat protein (input ligand: none): 32.8 nM

CGUUGAUGAGGAUAUCGAUGUUAGUACAUGAGGAUCACCCAUGUUAUCCAAGUGUCGUUUCGAGAAGGUAUUGGAC [LRO-Ex5-20] (puzzle: Exclusion 5)
apparent KD of MS2 coat protein [1]: 174 nM

UUUUAACAUGAGGAUCACCCAUGUGAGGAUAUCGAAUUUUUUAUUAAUAUUAAUAAAACGAGAAGGCACAUUUU [JMF 16] (puzzle: Exclusion 1)
apparent KD of MS2 coat protein [1]: 55.2 nM

CUUCAAGCACCAGAGCUCACACUUAUACCUGCUCUGGUGACAUGAGGAUCACCCAUGUUUUUUGCCCGUCUUAUCUU [Sensor v3, turn-off variant 2 (MOD of Leso v.2)] (Eterna round: R96, puzzle: Sensor v3, turn-off variant 2)
apparent KD of MS2 coat protein (input ligand: FMN 200 uM): 178 nM | apparent KD of MS2 coat protein [2]: 101 nM | apparent KD of MS2 coat protein (input ligand: none): 250 nM

AUUCCACAUGAGGAUCACCCAUGUGAGGAUAUCAUGCUUCGUAGUAAACUACGAAGUGUGAGAAGGCACAAUGG [Omei Ex1 C3] (Eterna round: R97, puzzle: Exclusion 1)
apparent KD of MS2 coat protein (input ligand: FMN 200 uM): 183 nM | apparent KD of MS2 coat protein (input ligand: none): 62 nM

UAUUAGCAAGCGAGAUCCCACAUGAGGAUCACCCAUGUGCUCGUCUUAUAAAGUACUGUGACGAUAGUCACGGUACA [Mat - Sensor, turn-off var - Eli Mod - D8] (Eterna round: R97, puzzle: Sensor, turn-off variant 1)
apparent KD of MS2 coat protein (input ligand: FMN 200 uM): 16.6 nM | apparent KD of MS2 coat protein (input ligand: none): 15.6 nM

UUUAAGUAAGGAUAUGCGAGCCACGGAAAUAAAACGUGGAGGUAGAAGGUACAUGAGGAUCACCCAUGUAAAAC [Mod of Anonveat 23 - Jieux - Exclusion 4] (Eterna round: R97, puzzle: Exclusion 4)
apparent KD of MS2 coat protein (input ligand: FMN 200 uM): 21.8 nM | apparent KD of MS2 coat protein (input ligand: none): 23.1 nM

ACACAAGCCCUUUGCUCGUUUUAAUACAGCGGGCUCUUCACAUGAGGAUCACCCAUGUAGGCCUUGUUCCAAGGCCG [Rebileve] (puzzle: Sensor v3, turn-off variant 2)
apparent KD of MS2 coat protein [3]: 20.4 nM | apparent KD of MS2 coat protein [1]: 23.6 nM | apparent KD of MS2 coat protein [4]: 20 nM

GAGGCAUGCCGAGGUCCACACAUGAGGAUCACCCAUGUCAUGACAGGCUUUUUACUCGUUUUAUCGCUAUCGCGUUC [Vebizaledi] (puzzle: Sensor v3, turn-off variant 1)
apparent KD of MS2 coat protein [3]: 84.8 nM | apparent KD of MS2 coat protein [1]: 159 nM | apparent KD of MS2 coat protein [4]: 70.7 nM

UAGCAUUGCCUUUGGUAGUGCUAUACAUGAGGAUCACCCAUGUAGGAUAUGGUCGGCUUUGCUGACCAGAAGGACAUGUGUAUU [MOD2 ENG3 1.04 by JL] (Eterna round: R96, puzzle: Exclusion NG 3)
apparent KD of MS2 coat protein (input ligand: FMN 200 uM): 159 nM | apparent KD of MS2 coat protein [2]: 91.5 nM | apparent KD of MS2 coat protein (input ligand: none): 93.1 nM

CAGGACUGAGGAUAUGCGCGGACAAGAUCCUCAAUCCCAAAACAUGAGGAUCACCCAUGUAGAAGGCAGAAAUA [Edbein] (puzzle: Exclusion 2)
apparent KD of MS2 coat protein [3]: 32.9 nM | apparent KD of MS2 coat protein [1]: 35.4 nM | apparent KD of MS2 coat protein [4]: 31 nM

GUCGAGUGAGGAUAUGGUGAGUAGUGCCAGAGCGCUGCUCACCAGAAGGCACAUGAGGAUCACCCAUGUAUGUC [Mat - Exclusion 4 - Mod of JL - D10] (puzzle: Exclusion 4)
apparent KD of MS2 coat protein [1]: 12.3 nM

AAAGCGUCAGGAUAUCCAAUAUAUGACAUGAGGAUCACCCAUGUUUCCACUCGUACCUCCGGAGAAGGGACAAAUA [Ex5 #86] (Eterna round: R97, puzzle: Exclusion 5)
apparent KD of MS2 coat protein (input ligand: FMN 200 uM): 32.5 nM | apparent KD of MS2 coat protein (input ligand: none): 38.1 nM

GGAGUACAUGAGGAUCACCCAUGUGAGGAUAUGUAAGGAUAGUAGGUAAGGAAAGAGGACAGAAGGCACGGGAA [JR_Exclu1_Sub070] (puzzle: Exclusion 1)
apparent KD of MS2 coat protein [3]: 46 nM | apparent KD of MS2 coat protein [1]: 41.4 nM | apparent KD of MS2 coat protein [4]: 67.2 nM

AAAACUGCUCAGGAUAUUUGUGUGUCAGGGCAUAAAGAAGGGAGCACAUGAGGAUCACCCAUGUGUUGGGUUCC [Zasozaer] (puzzle: Exclusion 6)
apparent KD of MS2 coat protein [1]: 68.7 nM

AGUACUAACACGGGAGUGUUAGUACAAUAAGCUUGUGAAACAUGAGGAUCACCCAUGUCCUCAUAAGCUCGUCUUAU [salish99_TOv2_r3_060] (Eterna round: R96, puzzle: Sensor v3, turn-off variant 2)
apparent KD of MS2 coat protein (input ligand: FMN 200 uM): 14.5 nM | apparent KD of MS2 coat protein [2]: 436 nM | apparent KD of MS2 coat protein (input ligand: none): 17.4 nM

CAAAAGGAAGGAUAUACAUGUUAAUUAUCCGAAGAUGUCGUACAUGAGGAUCACCCAUGUAGAAGGUCCAAAAC [Tiesbiused] (puzzle: Exclusion 2)
apparent KD of MS2 coat protein [1]: 27.1 nM

UAACAACAUGAGGAUCACCCAUGUGAGGAUAUGUACGUUCGUUGGCGAACCUUGUUCCGCAGAAGGCAUGUGGG [Eternabot (L1) Solution 28] (Eterna round: R97, puzzle: Exclusion 1)
apparent KD of MS2 coat protein (input ligand: FMN 200 uM): 232 nM | apparent KD of MS2 coat protein (input ligand: none): 38.6 nM

AUAAUGUAAGGAUAUCAGUCGUACAGCCUCGGCUGUACGACUGAGAAGGUACAUGAGGAUCACCCAUGUGAUCA [E4/8-A2] (Eterna round: R97, puzzle: Exclusion 4)
apparent KD of MS2 coat protein (input ligand: FMN 200 uM): 98.4 nM | apparent KD of MS2 coat protein (input ligand: none): 1200 nM

GUUUGAUUAGGAUAUACAUGAGGAUCACCCAUGUGUCCCAGUUUAGAAAUAGACAAAAGUAGAAGGGAUUAGAU [Starry 2] (Eterna round: R97, puzzle: Exclusion 3)
apparent KD of MS2 coat protein (input ligand: FMN 200 uM): 37.8 nM | apparent KD of MS2 coat protein (input ligand: none): 45.8 nM

AGAGUGCUGCGAGGAUAUACAUGAGGAUCACCCAUGUAAAUGUGUGAGGCUUUGCCUCACACAAUGUAGAAGGCGCAGUACUCU [Mat - Exclusion NG 2 - Mod of JL - D1] (Eterna round: R96, puzzle: Exclusion NG 2)
apparent KD of MS2 coat protein (input ligand: FMN 200 uM): 17.8 nM | apparent KD of MS2 coat protein [2]: 8.58 nM | apparent KD of MS2 coat protein (input ligand: none): 15.6 nM

UCAUACGUUGAGGAUAUGUCAGUUAGUAUAUUUACAGAAGGCGAUACAUGAGGAUCACCCAUGUUUAUGGGCAU [Ex-6 Malc#4] (puzzle: Exclusion 6)
apparent KD of MS2 coat protein [1]: 225 nM

CUGAAGGUGCAGGAUAUCCUGAAUAAGGGUUCAGGAGAAGGGCACACAUGAGGAUCACCCAUGUUAAUACUGCU [Eternabot (L2) Solution 54] (Eterna round: R97, puzzle: Exclusion 6)
apparent KD of MS2 coat protein (input ligand: FMN 200 uM): 29.5 nM | apparent KD of MS2 coat protein (input ligand: none): 39.1 nM

CAUGCUUCGGCAUGUACAAGCUUUUUGCUCGUCUUAUUAACAUGAGGAUCACCCAUGUCAAAGAGACCUCAUGUAUU [Sensor v3 - turn-off variant 2 - 3] (puzzle: Sensor v3, turn-off variant 2)
apparent KD of MS2 coat protein [3]: 356 nM | apparent KD of MS2 coat protein [1]: 16 nM | apparent KD of MS2 coat protein [4]: 263 nM

CUAGUCCGAGGAUAUAUUAUGUGAUACAUGAGGAUCACCCAUGUUAUAUGAUGGAUAUUAAUAGAAGGCGGACUAG [Mat - Exclusion 5 - JL mod - D74] (puzzle: Exclusion 5)
apparent KD of MS2 coat protein [3]: 58 nM | apparent KD of MS2 coat protein [1]: 68.3 nM | apparent KD of MS2 coat protein [4]: 88 nM

CCAGGCAGUGUGAGGAUAUCGUGGUCCUUGGAUCACGAGAAGGCACAUGAGGAUCACCCAUGUGAAUAGCUUGG [Mat - Exclusion 4 - JL Mod - D100] (puzzle: Brourd's mod of Exclusion 4)
apparent KD of MS2 coat protein [1]: 21.9 nM
